Assay results: patent US20220332804A1 (CSL INNOVATION, published 2022)
Substitutions are numbered along the chain they refer to.

Legend:
Experiment in all cases: SPR, antibody captured, C2 as analyte;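 further: biacore SPR at 37 °C, anti-C2 mAbs captured via goat anti-human IgG on CM5 chips, double-referenced sensorgrams fit to a 1:1 kinetic or steady-state model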
[1] = target: T1, human C2 S428A (human, UniProt P06681 21-752)
T1 sequence: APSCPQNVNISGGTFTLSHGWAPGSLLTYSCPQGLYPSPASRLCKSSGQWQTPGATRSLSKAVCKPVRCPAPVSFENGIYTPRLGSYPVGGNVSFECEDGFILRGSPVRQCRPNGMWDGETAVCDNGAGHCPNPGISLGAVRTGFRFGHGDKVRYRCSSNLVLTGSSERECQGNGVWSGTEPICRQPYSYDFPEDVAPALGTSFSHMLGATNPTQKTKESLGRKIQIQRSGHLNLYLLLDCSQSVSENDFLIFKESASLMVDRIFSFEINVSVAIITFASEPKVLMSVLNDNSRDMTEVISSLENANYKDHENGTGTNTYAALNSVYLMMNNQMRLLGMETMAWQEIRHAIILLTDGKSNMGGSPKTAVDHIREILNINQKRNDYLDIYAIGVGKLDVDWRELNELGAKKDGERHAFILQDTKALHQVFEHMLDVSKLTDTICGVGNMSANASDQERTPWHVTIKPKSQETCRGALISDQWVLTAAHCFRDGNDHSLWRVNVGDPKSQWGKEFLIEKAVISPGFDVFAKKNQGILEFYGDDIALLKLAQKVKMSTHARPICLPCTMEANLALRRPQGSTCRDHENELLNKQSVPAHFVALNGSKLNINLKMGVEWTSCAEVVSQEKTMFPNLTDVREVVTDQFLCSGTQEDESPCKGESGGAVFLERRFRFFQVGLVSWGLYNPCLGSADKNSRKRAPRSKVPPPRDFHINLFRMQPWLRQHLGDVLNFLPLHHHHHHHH

[2] = target: T2, human C2 D269A (human, UniProt P06681 21-752)
T2 sequence: T1 sequence with D249A, A408S

[3] = target: T3, human C2 A709S (human, UniProt P06681 21-752)
T3 sequence: T1 sequence with A408S, A689S

[4] = target: T4, human C2 T647A (human, UniProt P06681 21-752)
T4 sequence: T1 sequence with A408S, T627A

B1: RF16-226 (antibody, human IgG4 S228P, lambda)
heavy: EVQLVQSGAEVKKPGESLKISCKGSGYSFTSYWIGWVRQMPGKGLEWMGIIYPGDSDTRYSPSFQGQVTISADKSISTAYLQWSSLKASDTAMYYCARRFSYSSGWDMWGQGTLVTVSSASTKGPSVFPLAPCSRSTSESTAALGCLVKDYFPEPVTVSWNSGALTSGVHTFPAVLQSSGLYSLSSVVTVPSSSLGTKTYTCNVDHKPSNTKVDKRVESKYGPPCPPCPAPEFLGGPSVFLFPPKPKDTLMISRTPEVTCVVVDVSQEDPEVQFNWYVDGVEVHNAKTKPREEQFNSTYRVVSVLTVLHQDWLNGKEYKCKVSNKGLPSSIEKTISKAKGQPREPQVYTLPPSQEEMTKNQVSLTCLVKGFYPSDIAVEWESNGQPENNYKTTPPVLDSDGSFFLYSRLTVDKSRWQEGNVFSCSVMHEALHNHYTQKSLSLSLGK
light: SYELTQPPSVSVSPGQTARITCSGDALTSKYVAWYQQKSGLAPLLVIYEDTRRPSGIPAKFSGSSSGSVATLTISGAHGDDEADYYCYSTDASGHQRVFGGGTKLTVLSQPKAAPSVTLFPPSSEELQANKATLVCLISDFYPGAVTVAWKADGSPVKAGVETTKPSKQSNNKYAASSYLSLTPEQWKSHRSYSCQVTHEGSTVEKTVAPTECS
notes: pH-dependent anti-C2 antibody from a phage display library; also called WT
- Kd [1]: 18.8 nM
- Kd [2]: 13.1 nM
- Kd [3]: 127 nM
- Kd [4]: 147 nM
